# In patent publication US20070071681A1, “Apparatus and method for computer modeling type 1 diabetes” (Entelos, Inc., priority 2005, published 2007):
# Assays:
# [1] = test system: average virtual NOD mouse; experiment: Simulation of therapy protocols in the average virtual NOD mouse (computer model of type 1 diabetes); details: IL-10; Pennline 1994 protocol; at 28 wks; expectation from published data
# Source text: One application of a NOD mouse type 1 diabetes model is to improve understanding of type 1 diabetes pathogenesis in the NOD mouse. Model development therefore focused on islet β cell autoimmunity and tolerance, as well as related mechanisms and interventions. To provide for general immunologic function and not only progression to diabetes, the development effort included representation of several NOD mouse phenotypes. The first phenotype was an average diabetic virtual mouse. […] Typically, a simulation of the average virtual mouse concludes shortly after diabetes diagnosis, which is consistent with post-diabetic sacrifice of NOD mice in the laboratory. […] Additional virtual mice, each with different clinical behaviors and/or underlying pathophysiologies, have also been generated. Similarly, development of modals of type 1 diabetes in other mammals, such as humans, can include the development of various virtual patients representing normal animals or animals having varying degrees of severity or progression of type 1 diabetes.
# Because diabetes is typically assessed by measuring blood or urinary glucose, blood glucose levels were represented in the model's clinical read-out. Hyperglycemia (a diabetes indicator) was defined as a glucose level in excess of a commonly used standard (e.g., 200, 250, 300, 350 mg/dl). […]
# NOD mouse = details: cited from earlier work
molecule,measurement,setting,value
"IL-10: exogenous recombinant human IL-10 (protein, UniProt P22301 19-178, looked up) Interleukin-10: SPGQGTQSENSCTHFPGNLPNMLRDLRDAFSRVKTFFQMKDQLDNLLLKESLLEDFKGYLGCQALSEMIQFYLEEVMPQAENQDPDIKAHVNSLGENLKTLRLRLRRCHRFLPCENKSKAVEQVKNAFNKLQEKGIYKAMSEFDIFINYIEAYMTMKIRN",Expected virtual mouse outcome,[1],No diabetes at 28 wks
same,Incidence,"NOD mouse; IL-10, Pennline 1994, Rx 9-24 wks, 1 μg recombinant human IL-10 daily, 15 wks, at 28 wks, vs 85% control",25% vs. 85% control at 28 wks
same,Insulitis,"NOD mouse; IL-10, Pennline 1994",Reduced severity of insulitis
same,Disease progression,NOD mouse; IL-10 delivered in various ways,protect against disease progression
